Sequences and labels used below:
B1: TOX high mobility group box family member 3, residues 256 to 323; numbered along this chain, O15405 (parent)
chain: QKPVSAYALFFRDTQAAIKGQNPNATFGEVSKIVASMWDSLGEEQKQVYKRKTEAAKKEYLKALAAYR

Experimental findings from the Human Domainome abundance scans (Beltran et al. 2025) are described below.

± gives the uncertainty stated by the source.

The variants in the series derive from B1. Kind of series: abundance fitness (aPCA) (normalised: wild type 0, dead -1); higher = more abundant; growth selection in yeast, the domain comes from the species named. The conditions noted are these: Homo sapiens.
For the variant QKPVSAYALFFRDTQAAIKGQNPNATFGEVSKIVASMWDSLGEEQKQVYKLKTEAAKKEYLKALAAYR [R51L], the abundance fitness is 0.021 ± 0.04.
Then QKPVSAYALFFRDTQAAIKGQNPNATFGEVSKIVASMWDSLGEEQKQVYKFKTEAAKKEYLKALAAYR [R51F], with -0.256 ± 0.066.
For QKPVSAYALFFRDTQAAIKGQNPNATFGEVSKIVASMWDSLGEEQKQVYKDKTEAAKKEYLKALAAYR [R51D], the abundance fitness was 0.101 ± 0.083.
The figure for QKPVSAYALFFRDTQAAIKGQNPNATFGEVSKIVASMWDSLGEEQKQVYKNKTEAAKKEYLKALAAYR [R51N] is -0.017 ± 0.052; for QKPVSAYALFFRDTQAAIKGQNPNATFGEVSKIVASMWDSLGEEQKQVYKHKTEAAKKEYLKALAAYR [R51H] it is -0.018 ± 0.054.
Consider QKPVSAYALFFRDTQAAIKGQNPNATFGEVSKIVASMWDSLGEEQKQVYKIKTEAAKKEYLKALAAYR [R51I], for which the abundance fitness is -0.175 ± 0.082.
The figure for QKPVSAYALFFRDTQAAIKGQNPNATFGEVSKIVASMWDSLGEEQKQVYKEKTEAAKKEYLKALAAYR [R51E] is 0.222 ± 0.079; for QKPVSAYALFFRDTQAAIKGQNPNATFGEVSKIVASMWDSLGEEQKQVYKQKTEAAKKEYLKALAAYR [R51Q] it is -0.041 ± 0.058; for QKPVSAYALFFRDTQAAIKGQNPNATFGEVSKIVASMWDSLGEEQKQVYKAKTEAAKKEYLKALAAYR [R51A] it is -0.031 ± 0.049.
The figure for QKPVSAYALFFRDTQAAIKGQNPNATFGEVSKIVASMWDSLGEEQKQVYKYKTEAAKKEYLKALAAYR [R51Y] is -0.199 ± 0.096.
The figure for QKPVSAYALFFRDTQAAIKGQNPNATFGEVSKIVASMWDSLGEEQKQVYKWKTEAAKKEYLKALAAYR [R51W] is -0.079 ± 0.057.
For QKPVSAYALFFRDTQAAIKGQNPNATFGEVSKIVASMWDSLGEEQKQVYKMKTEAAKKEYLKALAAYR [R51M], the abundance fitness is -0.069 ± 0.056.
The figure for QKPVSAYALFFRDTQAAIKGQNPNATFGEVSKIVASMWDSLGEEQKQVYKGKTEAAKKEYLKALAAYR [R51G] is -0.032 ± 0.049; for QKPVSAYALFFRDTQAAIKGQNPNATFGEVSKIVASMWDSLGEEQKQVYKVKTEAAKKEYLKALAAYR [R51V] it is -0.072 ± 0.055; for QKPVSAYALFFRDTQAAIKGQNPNATFGEVSKIVASMWDSLGEEQKQVYKSKTEAAKKEYLKALAAYR [R51S] it is -0.02 ± 0.044.
As for QKPVSAYALFFRDTQAAIKGQNPNATFGEVSKIVASMWDSLGEEQKRVYKRKTEAAKKEYLKALAAYR [Q47R], the abundance fitness is -0.032 ± 0.037.
Then QKPVSAYALFFRDTQAAIKGQNPNATFGEVSKIVASMWDSLGEEQKNVYKRKTEAAKKEYLKALAAYR [Q47N], with 0.102 ± 0.095.
QKPVSAYALFFRDTQAAIKGQNPNATFGEVSKIVASMWDSLGEEQKHVYKRKTEAAKKEYLKALAAYR [Q47H]: the abundance fitness is -0.232 ± 0.1.
Turning to QKPVSAYALFFRDTQAAIKGQNPNATFGEVSKIVASMWDSLGEEQKPVYKRKTEAAKKEYLKALAAYR [Q47P], the abundance fitness is -0.812 ± 0.12.
The figure for QKPVSAYALFFRDTQAAIKGQNPNATFGEVSKIVASMWDSLGEEQKKVYKRKTEAAKKEYLKALAAYR [Q47K] is -0.048 ± 0.087; for QKPVSAYALFFRDTQAAIKGQNPNATFGEVSKIVASMWDSLGEEQKIVYKRKTEAAKKEYLKALAAYR [Q47I] it is -0.498 ± 0.49.
Then QKPVSAYALFFRDTQAAIKGQNPNATFGEVSKIVASMWDSLGEEQKLVYKRKTEAAKKEYLKALAAYR [Q47L], with -0.211 ± 0.061.
Then QKPVSAYALFFRDTQAAIKGQNPNATFGEVSKIVASMWDSLGEEQKCVYKRKTEAAKKEYLKALAAYR [Q47C], with -0.195 ± 0.061; and QKPVSAYALFFRDTQAAIKGQNPNATFGEVSKIVASMWDSLGEEQKTVYKRKTEAAKKEYLKALAAYR [Q47T], with -0.42 ± 0.14.
For the variant QKPVSAYALFFRDTQAAIKGQNPNATFGEVSKIVASMWDSLGEEQKAVYKRKTEAAKKEYLKALAAYR [Q47A], the abundance fitness is -0.101 ± 0.075.
Then QKPVSAYALFFRDTQAAIKGQNPNATFGEVSKIVASMWDSLGEEQKFVYKRKTEAAKKEYLKALAAYR [Q47F], with -0.445 ± 0.14; and QKPVSAYALFFRDTQAAIKGQNPNATFGEVSKIVASMWDSLGEEQKVVYKRKTEAAKKEYLKALAAYR [Q47V], with -0.033 ± 0.086.
The figure for QKPVSAYALFFRDTQAAIKGQNPNATFGEVSKIVASMWDSLGEEQKEVYKRKTEAAKKEYLKALAAYR [Q47E] is -0.052 ± 0.1; for QKPVSAYALFFRDTQAAIKGQNPNATFGEVSKIVASMWDSLGEEQKMVYKRKTEAAKKEYLKALAAYR [Q47M] it is -0.11 ± 0.089; for QKPVSAYALFFRDTQAAIKGQNPNATFGEVSKIVASMWDSLGEEQKDVYKRKTEAAKKEYLKALAAYR [Q47D] it is 0.033 ± 0.12.
Then QKPVSAYALFFRDTQAAIKGQNPNATFGEVSKIVASMWDSLGEEQKSVYKRKTEAAKKEYLKALAAYR [Q47S], with -0.079 ± 0.054; and QKPVSAYALFFRDTQAAIKGQNPNATFGEVSKIVASMWDSLGEEQKGVYKRKTEAAKKEYLKALAAYR [Q47G], with -0.103 ± 0.05.
Take QKPVSAYALFFRDTQAAIKGQNPNATFGEVSKIVASMWDSLGEEQKYVYKRKTEAAKKEYLKALAAYR [Q47Y]: the abundance fitness was 0.029 ± 0.13.
Then QKPVSAYALFFRDTQAAIKGQNPNATFGEVSKIVASMWDSLGEEVKQVYKRKTEAAKKEYLKALAAYR [Q45V], with -0.278 ± 0.079; and QKPVSAYALFFRDTQAAIKGQNPNATFGEVSKIVASMWDSLGEEYKQVYKRKTEAAKKEYLKALAAYR [Q45Y], with -0.373 ± 0.23; and QKPVSAYALFFRDTQAAIKGQNPNATFGEVSKIVASMWDSLGEERKQVYKRKTEAAKKEYLKALAAYR [Q45R], with -0.059 ± 0.045.
The figure for QKPVSAYALFFRDTQAAIKGQNPNATFGEVSKIVASMWDSLGEETKQVYKRKTEAAKKEYLKALAAYR [Q45T] is -0.114 ± 0.098; for QKPVSAYALFFRDTQAAIKGQNPNATFGEVSKIVASMWDSLGEEWKQVYKRKTEAAKKEYLKALAAYR [Q45W] it is -0.642 ± 0.095; for QKPVSAYALFFRDTQAAIKGQNPNATFGEVSKIVASMWDSLGEESKQVYKRKTEAAKKEYLKALAAYR [Q45S] it is -0.129 ± 0.061.
Then QKPVSAYALFFRDTQAAIKGQNPNATFGEVSKIVASMWDSLGEEPKQVYKRKTEAAKKEYLKALAAYR [Q45P], with -0.546 ± 0.066.
